This note sets out measurements from patent publication US20240009235A1 (published 2024).

This test concerns the target T1, Bob1 (gene POU2AF1) peptide on HLA-B*35:01 (human).
T1 peptide: APAPTAVVL
As to the kind of experiment: multimer staining.

B1: TCR 1C5.6 (TCR, V domains shown)
Valpha: AQSVTQLDSQVPVFEEAPVELRCNYSSSVSVYLFWYVQYPNQGLQLLLKYLSGSTLVESINGFEAEFNKSQTSFHLRKPSVHISDTAEYFCAVKVSNAGGTSYGKLTFGQGTILTVHP
Vbeta: DGGITQSPKYLFRKEGQNVTLSCEQNLNHDAMYWYRQDPGQGLRLIYYSQIVNDFQKGDIAEGYSVSREKKESFPLTVTSAQKNPTAFYLCASSIAQGADTQYFGPGTRLTVL
For the molecule B1, the binding result is recorded as “no recognition”.
